Experimental data reported in the nanobody polyreactivity screen of Harvey et al. (2022).

Assay: yeast display, Sf9 membrane polyspecificity reagent, FACS + sequencing; frameworks hold sequencing errors
Method in brief: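 After 36–48 hours of galactose induction, yeast (Saccharomyces cerevisiae BJ5465) displaying a synthetic nanobody library were stained at 4 °C for 1 hour with 10% biotinylated, detergent-solubilized Sf9 membrane reagent. Streptavidin microbeads enriched the stained cells before FACS sorting into low and high (top ~1%) gates on anti-HA and streptavidin fluorescence. Each clone's polyreactivity label reflects its gate of origin.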

Sequence	polyreactivity (PSR sort gate)
QVQLVESGGGLVQAGGSLRLSCAASGNIFPAYVMGGYRQAPGKDRELVAAITDSDGSTFYADSVKGRFTISRDNAKNTVYLQMNSLKAEDTAVYYCAAYSYRQGWGFGYWGQGTQVTVSS	low polyreactivity
QVQLVESGGGLVQAGGSLRLSCAASGRIFSRYVMGWYRQAPGKERELVAAITRNGGNTYYADSVTGRFTISRDNAKNTVYLQMNSLKPEDTAVYYCAGRAVLKSWAYYYWGQGTQVTVSS	high polyreactivity
QVQLQESGGGLVQAGGSLRLSCAASGNISVTGFMGWYRQAPGKERELVASIGIGGTTYYADSVKGRFSISRDNGKNTVYLQLNSLKPEDSAVYYCAARYLYYAYSYWGQGTQVTVSS	low polyreactivity
QVQLVESGGGFDQARCSLRLSCPACASILREYAMGWYRQAPGKERELVATISRDGSTNYADSVKGRFTISRDNAKNTVYLQMNSLKPEDTAVYYCNTDLTYPYPNVEVLVYGFKLDYWGQGTQVTVSS	low polyreactivity
QVQLVESGGGLVQAGGSLRLSCAASGSIFVSYAMVWYRQAPGKERELVAAITRSGGSTYYADSVKGRFTISRDNAKNTVYLQMNSLKPEDTAVYYCAARSYLGAYRRYYWGQGTQVTVSS	high polyreactivity
QVQLVESGGGLVQAGGSLRLSCAASGSIFDAYAMGWYRQATGKERELVAAITYSGGSTYYADSVKGRFTISRDNAKNTVYLQMNSLKPEDTAVYYCNTDSRVRTWFRAFTYDSWGQGTQVTVSS	low polyreactivity
QVQLVESGGGLVQAGGSLRLSCAASGSIFYYYAMGWYRQAPGKERELVAAISWCGGSTYYADSVKGRFTISRDNAKNTVYLQMNSLKPEDTAVYYCAAQRRYGDDYWGQGTQVTVSS	high polyreactivity
QFQLVESGGGLVKAGGSLRLSSAASGGTFGYYTMGWYRQAPGKERELVAAISSGGGTDYADSVKGRFTISRDNAKNTVYFQMTSLKPEDTALYYCATVSDYPWRYDYWVQGTQVTVSS	low polyreactivity
QVQLVESGGGLVQAGGSLRLSCAASGRTFLVNAMGWSRQAPGKERELVAAISQRGGSTDYADSVKGRFTISRDNAKNTVYLQMNSLKPEDTAVYYCAVRWGYLYDYWGQGTQVTVSS	low polyreactivity
QVQLVESGGALVQAGGSLRLSCAASGSIFLFNTMGWYRQAPGKETELVAVISGGGITYYADSVKGRFTISRDNAKNTVYLQMNSLKPEDTAVYYCAADGGYWSQYDYWGQGTQVTVSS	low polyreactivity
QVQLLESGGGLVQAGGSLRLSCAASGFIICYNGMGWYRQAPGKERELVAGITYSDGSTYYADSVKGRFTISRDNAKITVYLQMNSLKPEDTAVYYCAVDVFYYWAEDYDYWGQGTQVTVSS	low polyreactivity
QVQLVESGGGLVQAGGSLRLSCAASGRTISWYAMGRYRQAPGKERELVAAITYSGGSTYYAVSVKGRFTISRDNAKNTVYLQMNSLKPEDTAVYYCAADGRVREYDYWGQGTQVTVSS	high polyreactivity
QVQLVESGGGLVQAGGSLRLSCAASGSTFDYYVMGWYRQAPGKERELVAAISLSGGSTYYADSVKGRFTISRDNAKNTVYLQMNSLKPEHTAVYYCAAQTKPASRVTYYWYYYWGQGTQVTVSS	high polyreactivity
QVQLVESGGGLVQAGGSLRLSCAASGSTFDAYAMGWYRQAPGKERQLVAAITHGGSTNYADSVKGRFTISRDNAKNTVYLQMNSLKPEDTAVYYCNAQHRTVWGIFGRFNYWGQATQVTVSS	low polyreactivity
QVQLVESGGGLVQAGGSLRLSCAASGRIFYYNAMGWYRQAPGKERELVAAITRTGGSTYYADSVKGRFTISRDNAKNTVYLQMNSLKPEDTAVYYCAAYGGRDIRFEYWGQGTQVTVSS	high polyreactivity
QVQLVESVGGLVQAGGSLRLSCASSGLIFPIYTMGWYRQAPGKERELVAASSSRGGSTYYADSVKGRFTISRDNAKNSVYLQMNCLKPEDTAVYDFGSYDYSGQGTQVTVSS	high polyreactivity
QVQLVESGGGIVQAGGSLRLSSAASGSIIFYYAMGWYRQPRGKEREFVAAITRSGVRTYYADSVKGRFTISRDNAKNTVYLQMNSLKPEDTAVYYCNDDYGFYRPVLMGFWGQGTQVTVSS	low polyreactivity
QVQLVESGGCLVQAGGSLRLSCAASGLIFYENAMGWYRQAPGKERELVAAINYDGDSTYYADSVKGRFTISRDNAKITVYLQMNSLKPEDTAVYYCAADGGWVLFWMDYWGQGTQVTVSS	low polyreactivity
QVQLVESGGGLVQAGGSLRLSCAASGSTFAQNAMGWYRQAPGKEREFVAAITGTVGSTYYADSVKGRFTISRDNAKNTVYLQMNSLKPEDTAVYYCNTRGFNGRVYPYDYWGQGTQVTVSS	low polyreactivity
QVQLVESGGGLVQAGGSLRLSCAASGINFNYYAMGWYRQAPGKERELVAAISSTGSTYYSDSVKGRFTISRDNAKNTVYLQMNSLKPEDTAVYYCAAEWWDTGFANYGYDYWGQGTQVTVSS	high polyreactivity
QVQLVESGGGLVQAAGSLLLSCAASGSTFYYYAMGWYRQAPRKDRELVAAISRGGGSTYYADSVKGRFTISRDNAKTTVYLQMNSLKPQDTAVYYCYVSRFDSWGQGTKVTVSS	high polyreactivity
QVQLEESGGGLVQAGGSLRLTCAASGRIFHSNDMGWNRQAPGKERELVAAITKVGGTNYADSVKGRFTISRDNAKNTVSLQMNSLKPEDTAVYYCAAAFYLYSPISGVYLSYSEYDYWGQGSQVTVSS	high polyreactivity

Sequence	polyreactivity (PSR sort gate)
QVQLVESGGGLVQAGGSLRLSCAASGFTFTGYAMGWYRQAPGKERELVAAISSSGGSTYYADSVKGRFTISRDNAKNTVYLQMNSLKPEDTAVYYCNARISDAHYQCNYFLVLYDYWGQGTQVTVSS	low polyreactivity
QVQLVESGGGLVQAGGSLRLSCAASGRIFWVNAMGWYRKAPGKERELVARIRGRSGSTYYADSVKGRFTISRDNAKNPVYLQMNSLKREDTAVYYCAAREFRRPDIFLRDYWGQGTQVTVSS	high polyreactivity
QVQLVESGGGLVQAGGSLRLSCAASGFIFWQYTMGWYRPAPGKERELVAAINGGSATYYADSVKGRFTISRDNAKNTVYLQMNSLKPEDTAVYYCAADRYLYHYRYEYYYWGQGTQVTVSS	high polyreactivity
QVQLVESGGGLVQAGGSLRLSCAASGRIFTWNARGWYRQAPGKERELVARISSGTRTNYADSVKGRFTISRDNAKNTVYLQMYSLKPEDTAVYYCAAAAKRTDAYHNRRYYWGQGTQVTVSS	high polyreactivity
QVQLVYSGGGLVQAGGSLRLSCAASGSLFYHNAMGWYRQAAGKEMELDADISWSGGSTYYADSVKGRFTISRDYAKNTVYLQMNSLKPEDTAVYYGNTDARYDEYDEFDYWGQGTQVTVSS	low polyreactivity
QVQLVESGGGLVQAGGSLRLSCAAYGSIFYFNAMGWYRQAPGKERELVAAITYNGGSTRYADSVKGRFTISRDNAKNTVYLQMNSLKPEDTAVYYCAARAKYGPEDGYWGQGTQVTVSS	high polyreactivity
QVQLVESGGGLVQAGGSLRLSCAASGRILYYYAMGWYRQAPGKERELVAGITTDDSTNYADSVKGRFTISRDNAKNTVYFQMNSLKPEDTAVYYCAAKYVHGEYDYWGQGTQVTVSS	low polyreactivity
QFQLVESGGCLVQAGGSLRLSCAASGFIFLQYAMGWYRQAPGKETELGAAITSGGGTNYEDSVKGRFTISRDNAKNTVYLPMNSLKPEDTAGYNCAARTWPWVLGATQDDYWGQGTQVTVSS	low polyreactivity
QVQLVESGGGLVQAGGSLRLSCAASGSTFKRYAMGWYRQAPGKERELVASISSGGSTNYADSVKGRFTISRDNAKNTVYLQMNSLKPEDTAVYYCATYLVTGGGLNVRYDYWGQGTQVTVSS	high polyreactivity
QVQLVESGGGLDQAGGSLRLSCAASGSIFTYNVMGWYRQAPGKERELVAAISWDGDSTYYADSVKGRFTISRDNAMKTVYLQMNSLKAEDTAVYYCAADVHEKFQYDYWGQGNQVTVSS	high polyreactivity
QVQLVESGGGLVQAGGSLRLSCAASGYTFDANAMGWYRQAPGKERELVAAIRSGGGLTYYADSVKGRFTISRDNAKNTVYLQMNSLKPEDTAVYYCAAVTRRDSFEYWGQGTQVTVSS	low polyreactivity
QVQLVESGGGLVQAGGSLRLSCDASGIIFPRYAMGGYRQAPGKERELVAAITIGGRTNYADSVKGRFTISRDNAKNTVYLQMTSLKPEDTAVYYCAAQTYVPYYEYDYWGQGTQVTVSS	low polyreactivity
QGQLVESGGGLGQAGGSLRLSCGASGRTFDSYAMGWYRPAPGKEREFVAAISYSGTSTYYAVSVTGRFTISRDKAKNTVYLQMNSLIPEDTAVYYCAKEYTFRQWGQGTQVTVSS	low polyreactivity
QVQLVESGGGLVQAGGSLRLSCAASGSTFRIYAMGWYRQAPGKERELVATITSGSSTYADSVKGRFTISRDNAKNTVYLQMNSLKPEDTAVYYCAARRKGGHISYGYDYWGQGTQVTVSS	high polyreactivity
QVQLVESGGGLVQAGGSLRLSCAASGRIFSLNAMGWYRQAPGKERELVAGIRKRGGSTYYADSVKGRFTISRDNAKNTVYLQMNSLKPEDTAVYYCAAQPALTYRFYYWGQGTQVTVSS	high polyreactivity
QVQLEESGGGLVQAGGSLRLSCAASGSTFIVNAMGWYRQAPGKERELVATISGGDSTDYADSVKGRFTISRDNAKNTVYLQMKSLKPEDTAVYYCNAEVHQYYFTPYDYWGQGTQVTFSS	low polyreactivity
QVQLVESGGGLVQAGGSLRLSCAASGGTFYRSAMGWYRQAPGKERELVAAISTGSSTYYADSVKGRFTISRDNAKNTVYLQINSQKPEDTAVNYCAARYWERYRSFNYWGQGTQVTVSS	high polyreactivity
QVQLVESGGGLVQAGGSLRLSCAASGSIFVVYAMGWYRQAPGKERELVAAITADDDTNYADSVKGRFTISRDNAKNTDYLQMNSLKPEDTAVYYCAKEVWLAINTRTGYEVYYWGQGTQVTVSS	low polyreactivity
QVQLVESGGGVVQAGGSLRLSCAASGSTFSYNAMGWYRQAPGKERELVAAITSTGRTYYADSVKGRFTISRDNAKNTVYLQMNSLKPEDTAVYYCNKRARSEQYSYNYGYYYWGQGTQVTVSS	high polyreactivity
QVQLVESGGGLVQAGGSLRLSCAASGSTFKGYAMGWYRQAPGKERELVAAITWSSGRTYYADSVKGRFTISRDNAKNTVYLQMNSLKPEDTAVYYCAAKSRRTRRSYYWGQGTQVTVSS	high polyreactivity
QVQLVESGGGLVQAGGSLRLSCAASGRISVFYTMGWYRQAPGKERELVAVIRTSGGRTNYADSVKGRFTISRDNAKNTVYLQMNSLKPEDTAVYYCAARVVRYGYKYYYWGQGTQVTVSS	low polyreactivity
